The nature of this data set: yeast display, Sf9 membrane polyspecificity reagent, FACS + sequencing; frameworks hold sequencing errors. Summed up: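 Nanobodies from a synthetic yeast display library (Saccharomyces cerevisiae BJ5465), induced 36–48 hours with galactose, were stained 1 hour at 4 °C with 10% biotinylated, detergent-solubilized Sf9 membrane reagent, enriched on streptavidin microbeads, then FACS-sorted. Anti-HA (expression) and streptavidin (reagent binding) fluorescence set low and high (top ~1%) gates. Polyreactivity labels come from the gate of origin. Genes were colony-PCR amplified, MiSeq 2 × 250 sequenced and filtered by CDR length.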
As for “QVQLVESGAGLVQAGGSLRLSCAASGNTFGTYAMGGSRQAPGKERELVASISKRAGSTYYADSVKGRFTISRDNAKNTVYLQMNSLKPEDTAVYYCAASSWDTFDYWGQGTQVTVSS”, the “polyreactivity (PSR sort gate)” value is given as “high polyreactivity”.

For the sequence “QVQLVESGGGLVQAGGSLRLSSAASGSTFAFYDMGWYRQAPGKERELVAGISSSGSTYYADSVKGRFTISRDNAKNTVYLQMNSLKPEDTAVYYCAAVLSVRVYGYDYWGQGTQVTVSS”, the “polyreactivity (PSR sort gate)” value is given as “low polyreactivity”. For “QVHLVESGGGLVQAGGSLRLSFAASGRIFARYALGWYRPAPGKERELVAAITSGGSTHYADSVKGRFTIARENAKNTVYLQMNSLKPEDSAVYYCAAVYRGQRYDYWGQGTQVTVSS”, the “polyreactivity (PSR sort gate)” value is recorded as “high polyreactivity”. To “QVQLVESGGGLVQAGGSLRLICAGSGRIFYRYPMGWYRQAPGKERELVAAITVRGGSTYYADSVKGRFTISRDNAKNTVYVQRHSLKPEDTALYYCATGLGVLYDYWYEVEFDYWGQGTQVSVSS” belongs “low polyreactivity”.

For the sequence “QVQLVESGGGLVQAGGSLRLSCAASGSTLAPYVMGWYRQAPGKERELVSVISTRTGRTSYADSVKGRFTLSRDNAKNTVYLQMNSLKPEDTAVYYCNAQWVSWWSLYDYWGQGTQVTVSS”, the “polyreactivity (PSR sort gate)” value is listed as “high polyreactivity”. To “QVQLVESGGGLVQAGGSLRLSCAASRSIFVRNAMGWYRPAPGKERELVAAITSDVNTYYADSVKGRFTISRDNAKNTVYLQMNSLKPEDTAVYYCAKGVTSQPNDPAPFPRYEYWGQGTQVTVSS” belongs “low polyreactivity”; to “QVQLVESGGGLVQAGGSLRLSCAASGFTFYSYAMGWYRQAPGKERELVAAISWSGSRTYYADSVKGRFTISRDNAKNTVYLQMNSLKPEDTAVYYCTKYLPRHRYDFDYWGQGTQVTVSS”, “high polyreactivity”.

On to “QVQLVESGGGLVQAGGSLRLSCAASGGILNYYAMGWYRQAPGKERELVAAITGIGGSTSYADSVKGRFTISRDNAKNTVYLQMNSLKPEDTAVYYCAAEATSSYYVPDYDYWGQGTQVTVSS”, for which the “polyreactivity (PSR sort gate)” value is recorded as “low polyreactivity”. Turning to “QVQLVESGGGLVQAGGSLRLSCAASGLTFEKYAMGWYRQAPGKEREMVAAISQDGGSTYYADSVKGRFTISRDNAKNTVYLQMNSLKPEDTAVYYCAAEDPDSWLPWDLFYYWGQGTQVTVSS”, the “polyreactivity (PSR sort gate)” value is reported as “low polyreactivity”.

Consider “QVQLVESGGGLVQAGGRLRLICSASGRIIKDNAMGWYRQAPGKERELVADISSSGGSTYYADSVKGRFTISRDNAKNTVYLQMNSLKPEDTAVYYFAKYRYPSRLYSFPLGYDYWGQGTQVTLSS”, for which the “polyreactivity (PSR sort gate)” value is listed as “high polyreactivity”. On to “QVQLVESGGGLVQAGGSLRLSCAASGSIFYYYAMGWYRQAPGKERELVAAISSTGGSTYYADSVKGRFTISRDNAKNTVYLQMNSLKPEDTAVYYCAAYHYGSNVFYFDYWGQGTQVTVSS”, for which the “polyreactivity (PSR sort gate)” value is recorded as “low polyreactivity”.

As for “QVQLVESGGGLVQAGGSLRLSCAASGFTFWRNTMGWSRQAPGKERELVAAIDRSGSSTYYADSEKGRFTISRDNATNTVYLQMNSLKPEDTAVYYCAAAHTYFTPYGDYWGQGTQVTVSS”, the “polyreactivity (PSR sort gate)” value is recorded as “low polyreactivity”. To “QVQLVESAGGLVQAGGSLRLSCADSGSIFRYYAMGWYRQAQGQERELVAAISYSGGRTYYADSVKGRFTISRDNAKNTVYLQMNSLKPEDTAVYYCNAGAGKRGYDYWGQGTQVTVSS” belongs “low polyreactivity”; to “QVQLVESGGGLVQAGGSLRLSCAASGRIFPPNAMGWYRQGPGKERELVAGITSSGDTTYYADSVKGRFTISRDHAKKTVNLQMHSLKPEDTAVNYCAKDDVYADDRSALFDYWGQGTQVTVSS”, “low polyreactivity”; to “QVQLVESGGGLVQAGGSLRLSCAASGSTFLHYAMGWYRQAPGKERELVAAISFSGVRTYYADSVKGRFTISRDNAKNTVYLQMNSLKPEDTAVYYCAADGHHADYDYWGQGTQVTVSS”, “low polyreactivity”.

“QVQLVESAGGLVQAGGILRLSCAASGSTFDSYGMGWYRQAPGKERELVASISVSGGGTYYADSVKGRFTISRDNAKNTVYLQMNSLKPEDTAVYYCNARYGNESQGWEDYWGQGTQVTVSS”: the “polyreactivity (PSR sort gate)” value is “low polyreactivity”. Under “QVQLVESGGGLVQAGGSLRLSCAASGRTFPRYGMGWYRQAPGKERELVATIRTGGRTNYADSVKGRFTISRDNAKNTVYLQMNSLKPEDTAVYYCATDSSKHPYSPTLLKFDYWGQGTQVTVSS” stands “low polyreactivity”. To “QVQLVESGGGLVQAGGSLRLSCAASGFIFQSYAMGWYRQAPGKERQLVAAISYTGGSTYYADSVKGRFTISRDNAKNTVYLQMNSLKPEDTAVYYCARSYYTNGNALKRDYWGQGTQVTVSS” belongs “high polyreactivity”; to “QFQLVESGGGLVLAGGSLRLSCAASGRTYLVNAMGWYRQAPGKERELVAVITRGGSTNYADSVKGRFTISRDNAKNTDYLQMNSLKPEDTAVYYCAKQFSPYRSYGPVVRYDYWGLGTQVTVSS”, “low polyreactivity”. To “QVQLVESGGGLVQAGGSLSLSCAASGIIFGSYAMGWYRQAPGKESELVAAITSRGSSTRYADSVKGRFTISRDNAKNTVYLQMNSLKPEDTAVYYCATKVVVAHLPGYYYWGQGTQVTVSS” belongs “high polyreactivity”. “QVHLVESGGGLVQAGGSLRLSCAASGTIFGINAMGWYRQAPGKERELVAGITSGGSTYYADSLKGRFTISRDNAKNTVDLQMNILKPEDTAVYYCAAVANQWYTEREYWGQGTQVTVSS”: the “polyreactivity (PSR sort gate)” value is “low polyreactivity”. As to “QVQLVESGGGLVQAGGSLRLSCAASGGIFSPNAMGWYRQAPGKERELVAAISSNGGSTNYADSVKGRFTISRDHAKNTVYLQMNSLKPEDTAVYYCAGLQKRRSYWRPFYWGQGTQVTVSS”, the “polyreactivity (PSR sort gate)” value is reported as “low polyreactivity”. Regarding “QVQLVESGGGLVQAGGSLRLSCAASGSTFYGNAMGWYRQAPGKERELVATISWSGGSTYYADSVKGRFTISRDNAKNTVYLQMNSLKPEDTAVYYCNAEITTKSLVTRYSWYGGDYWGQGTQVTVSS”, the “polyreactivity (PSR sort gate)” value is “low polyreactivity”. Under “QVQLVESGGGLVQAGGSLRLSCAASGYTFTVYPMGGYRPAPGKERELVAAIRDGSSTNYADSVKGRFTISRDNAKNTVYLQMISLKPEDTAVYYCNAYSQSWNFYGDGDYWGQGTQVTVSS” stands “low polyreactivity”; under “QVQLVESGGGLVQAGGSLRLSCAASGITFSSNAMGWSRQAPGKERELVAAISSSGGRTYYADSVKVRFTISRDYAKNTVYLQMNSLKPEDTAVYYCAKTSRYYYYSRLYYWGQGTKVTVSS”, “high polyreactivity”; under “QVQLVESGGGLVQAGGSLRLSCAASGFTVGVYAMGWYRQAPGKERELVAAISSGGSTNYADSVKGRFTISRDNAKNTVYLQMNSLKPEDTAVYYCAADAVSGGQGTADYDYWGQGTQVTVSS”, “low polyreactivity”. To “QVQLVESGGGLVQAGGSLRLSCAASGSTFLNYAMGWYRQAPGKERELVASISYSAGSTYYADSVKGRFTISRDNAKNTVYLQMNSLKPEDTAVYYCAARLARAGYWRRNYYYWGQGTQVTVSS” belongs “high polyreactivity”; to “QVQLVESGGGLVQAGGSLRLSCAGSGFIFNVYAMGWYRQAPGKARELVAAISRSGGSTYYADSVKGRFTISRDNAKNTVYLQLNSLKPEDTAVYYCNARTPPSYYDMGYWGQGTQVTVSS”, “high polyreactivity”.

In the case of “QVQLVESGGGLVQAGGSLRLSCAASGLTFSYYAMGWYRQAPGKERELVAAISSSGGSTYYADSVKGRFTISRDYAKNTVYLQMTSLKPEDTAVYYCATAASPVRKRYDYWGQGTQVTVSS”, the “polyreactivity (PSR sort gate)” value is recorded as “high polyreactivity”. To “QVQLVESGGGLVQAGGSLRLSCAASGSTFTYYAMGWYRQAPGKERELVASISGSGSRTYYADSVKGRFTISRDTAKNTVYLQMNSLTPEDTAVYSCAARFYVRWYYYGSYANYWGQGTQVTVSS” belongs “high polyreactivity”; to “QVQLVESGGGLVQAGGSLRLSCAASGRILWGYAMGWYRQAPGKERELVAAITWSTGTTSYADSVKGRFTISRDNAKNTVYLQMNSLKPEDTAVYYCARRQWRTQLVYGSRRDYWGQGTQVTVSS”, “low polyreactivity”. For “QVQLVESGGGLVQAGGSLRLSCAASGRTFTPNAMGWYRQAPGKERELVAAITSTGGRTYYADSVKGRFTISRDNAKNTVYLQMNSLKPEDTAVYYCAVSYRYLRKYGYWGQGTQVTVSS”, the “polyreactivity (PSR sort gate)” value is given as “high polyreactivity”. For the sequence “QVQLVESGGGLVQAGGSLRLSCAPSGRIFWRYAMGWYRQAPGKERELVAGITYSGGRTYYADSVKGRFTISRDNAKNSVFLQMNSLKPEDSAVYYCAARGYFDALVDYWGQGTQVTVSS”, the “polyreactivity (PSR sort gate)” value is on record as “low polyreactivity”.

Turning to “QVQLLESGGGLVQAGGSLRLSCAASGSIFTPNNMGWYRQAPGKESEFVAAITFSGGSTYYADSVKGRFTISRDNAKNTVYLQMNSLKPEDTSVYYCAAVYPTYDWYTPAYYYWGQGTQVTVSS”, the “polyreactivity (PSR sort gate)” value is “low polyreactivity”. To “QVQLVESVGGLVQAGGRLRLSCAASGFIFYEYAMGWYRQAPGKERELDPAITSGGSTDYADSVKGLFTISRDNAKNTVYLQMNSLKPEDTAVYYCNADLFTGYYWYNYCGQGTQVTVSS” belongs “low polyreactivity”. Take “QVQHVESVGGLVQAGGSLPLSCDASGSIFGPNAMGWYRQAPGKESELVAAISGSGGSTYYADSVKGRFTISRDNAKNTVYLQMNSLKPEATAVYYCAADLDGTLSVYDYHTTGDDYWGQGTQVTVSS”: the “polyreactivity (PSR sort gate)” value is reported as “low polyreactivity”.

For “PVQLVESGGGLVQAGGSLRLICAASGRIFLPYAMGWYRQAPGKERELVASITRRGGTTYYADSVKGRFTLSRDYAKNTDYLQLNSLKTEDTSVYYCAADSGYRLQSYGYWGQGTQVTVSS”, the “polyreactivity (PSR sort gate)” value is listed as “high polyreactivity”. Under “QVQLEESGGGLVQAGGSLRLSCAASGRIFPTYVMGWYRQAPGKERELVAAITSIDGRTYYADSVKGRFTISRDNAKNTVYLQMNSLKPEDTAVYYCAADYDYLSISEGYYWGQGTQVTVSS” stands “low polyreactivity”; under “QVHLVESRGGLVQAGGSLRLSCAASGFIFRWYAMGCYRQAPGKERELVAAISSSSGSTYYADSVKGRFTISRDNAKNTVYLQMNSLKPEDTAVYYCAAESNRRFEGEYWGQGTQVTVSS”, “high polyreactivity”.

Turning to “QVQLVESGGGLVQAGGSLRLSCAASGRTFATNAMGWYRQAPGKERELVAAISRRGASTYYADSVKGRFTISRDNAKNTVYLQMNSLKPEDTAVYYCAARQYIRGARIYDYWGQGTQVTVSS”, the “polyreactivity (PSR sort gate)” value is listed as “high polyreactivity”.

The values above are taken from the nanobody polyreactivity screen of Harvey et al. (2022).
